According to patent publication US7803749B2, “Peptide inhibitors of MKK7 kinase binding to insulin binding proteins” (Xigen SA, priority 2002, dated 2010):
Entries after “also recorded” stand apart in the source; their conditions may differ. Residues, ends and D or L forms follow the SMILES beside them.

Columns and labels:
[1] = molecular target: T1, MKK7 binding to IB1 (SH3 domain) (Homo sapiens, UniProt Q9UQF2); test: Pull-down of 35S-labelled MKK7 with GST-SH3 domain of IB1; conditions: FIG. 2
T1 construct: the SH3 domains of IB1 and IB2 were subcloned using PCR into the pGEX-4T1 vector in frame with the GST; made in house; host or cells: E. coli
T1 sequence (Q9UQF2 488-549 limits assumed): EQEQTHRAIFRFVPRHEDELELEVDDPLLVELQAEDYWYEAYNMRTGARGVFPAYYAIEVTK
Experimental: (§1) Effects of the αSH3 peptide on JNK biological activities were then studied. […] In the pull-down experiments, the SH3 domains of IB1 and IB2 were subcloned using PCR into the pGEX-4T1 vector in frame with the GST (Pharmacia). The recombinant proteins were produced in E. Coli. Purification was performed in native conditions using a glutathione-agarose column (Pharmacia). ^35S-labelled MKK7 was then used in classical pull-down experiments.

[2] = molecular target: T2, MKK7 binding to IB2 (SH3 domain) (Homo sapiens, UniProt Q13387); test: Pull-down of 35S-labelled MKK7 with GST-SH3 domain of IB2; conditions: FIG. 2
T2 construct: the SH3 domains of IB1 and IB2 were subcloned using PCR into the pGEX-4T1 vector in frame with the GST; made in house; host or cells: E. coli
T2 sequence (Q13387 604-665 limits assumed): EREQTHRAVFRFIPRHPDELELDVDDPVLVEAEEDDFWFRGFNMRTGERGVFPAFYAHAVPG
Experimental: as §1

[3] = test system: developing rat cortical neurons; test: Incubation of developing rat cortical neurons with peptide (necrotic bodies, neuron number); conditions: 1 μM, vs control neurons, FIGS. 4A-4F

| Molecule | Blocking of the binding of MKK7 to IB1 [1] | Blocking of the binding of MKK7 to IB2 [2] | Toxicity on developing neurons (appearance of residual necrotic bodies) [3] |
| --- | --- | --- | --- |
| αSH3: consensus αSH3 sequence SVSVGMPPSPRP, 12 aa | efficiently blocks | efficiently blocks |  |
| CSCC[C@H](NC(=O)CNC(=O)[C@@H](NC(=O)[C@H](CO)NC(=O)[C@@H](NC(=O)[C@H](CO)NC(=O)[C@H](CCCNC(=N)N)NC(=O)[C@H](CCCNC(=N)N)NC(=O)[C@H](CCCNC(=N)N)NC(=O)[C@H](CCC(N)=O)NC(=O)[C@H](CCCNC(=N)N)NC(=O)[C@H](CCCNC(=N)N)NC(=O)[C@H](CCCCN)NC(=O)[C@H](CCCCN)NC(=O)[C@@H](N)CCCNC(=N)N)C(C)C)C(C)C)C(=O)N1CCC[C@H]1C(=O)N1CCC[C@H]1C(=O)N[C@@H](CO)C(=O)N1CCC[C@H]1C(=O)N[C@@H](CCCNC(=N)N)C(=O)N1CCC[C@H]1C(=O)O [TAT-αSH3] (H-RKKRRQRRRSVSVGMPPSPRP-OH) |  |  | lacked residual necrotic bodies; also recorded: not toxic |
